Measurements as given in paper PMC7291361 (ACS infectious diseases, 2020).

Biological target: H1 SI-06 HA FLsE (Influenza A virus A/Solomon …, UniProt A7UPX0, strain)
Test: ELISA

B1: K03.12 IgG (antibody, V domains shown)
VH: QVQLVQSGAEVKKPGASVKVSCKTSGYTFTAYYLHWVRQAPGQGFEWMAWINPNTGDTNYAQKFQGRVTLSRDTSITTAYMELTRLRSDDTAVYYCAKDLTLMYVFDSGWARGAHDYYGMDVWGQGTTVAVSG
VL: PSALTQPASVSGSPGQSVTISCTGTNSDVGTFDLVSWYQQYPGKAPKLIIYEGSRRPSGVSDRFSGSKSGNTASLTISGLQAEDEADYYCSSYAGSVVFGGGTKLTVL
B1: binds.
